Laboratory results: the supplement of paper PMC9112550, “Optimization of the antimicrobial peptide Bac7 by deep mutational scanning” (BMC Biology, 2022)

tested on: Escherichia coli TOP10; test: shrunken log2 fold change of peptide-encoding DNA abundance (4.5 h post-induction vs induction); higher = less antimicrobial activity (less host growth inhibition); conditions: time post-induction: 4.5 h; library: site-saturation at positions 5, 18, 19, 20
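Also: peptides expressed intracellularly from a pBAD plasmid library in pooled LB shake-flask culture, induced with 0.3% L-arabinose, DNA abundance read by NGS, three biological replicates, DESeq2 with apeglm shrinkage.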

| Sequence | shrunken log2 fold change |
| --- | --- |
| RRIRLRPPRLPRPRPRPARIPRP | 0.00509 |
| RRIRLRPPRLPRPRPRPARMPRP | 0.386 |
| RRIRLRPPRLPRPRPRPASTPRP | 0.0489 |
| RRIRLRPPRLPRPRPRPATIPRP | -0.0972 |
| RRIRLRPPRLPRPRPRPAWEPRP | 0.185 |
| RRIRLRPPRLPRPRPRPAYLPRP | -0.304 |
| RRIRLRPPRLPRPRPRPAYNPRP | -0.119 |
| RRIRLRPPRLPRPRPRPAYSPRP | -0.354 |
| RRIRLRPPRLPRPRPRPCAPPRP | 0.00325 |
| RRIRLRPPRLPRPRPRPCCFPRP | -0.0513 |
| RRIRLRPPRLPRPRPRPCCKPRP | -0.102 |
| RRIRLRPPRLPRPRPRPCCVPRP | 0.0472 |
| RRIRLRPPRLPRPRPRPCDAPRP | -0.105 |
| RRIRLRPPRLPRPRPRPCETPRP | -0.155 |
| RRIRLRPPRLPRPRPRPCFRPRP | 0.0965 |
| RRIRLRPPRLPRPRPRPCFWPRP | 0.14 |
| RRIRLRPPRLPRPRPRPCHEPRP | 0.0247 |
| RRIRLRPPRLPRPRPRPCHRPRP | 0.00936 |
| RRIRLRPPRLPRPRPRPCIHPRP | -0.392 |
| RRIRLRPPRLPRPRPRPCIKPRP | -0.752 |
| RRIRLRPPRLPRPRPRPCIWPRP | -0.21 |
| RRIRLRPPRLPRPRPRPCKGPRP | -0.0757 |
| RRIRLRPPRLPRPRPRPCKSPRP | -0.264 |
| RRIRLRPPRLPRPRPRPCLRPRP | -0.0817 |
| RRIRLRPPRLPRPRPRPCLTPRP | -0.304 |

| Sequence | shrunken log2 fold change |
| --- | --- |
| RRIRLRPPRLPRPRPRPCMFPRP | -0.431 |
| RRIRLRPPRLPRPRPRPCMVPRP | -0.365 |
| RRIRLRPPRLPRPRPRPCMWPRP | -0.0832 |
| RRIRLRPPRLPRPRPRPCPFPRP | -0.353 |
| RRIRLRPPRLPRPRPRPCPMPRP | -0.444 |
| RRIRLRPPRLPRPRPRPCPQPRP | -0.391 |
| RRIRLRPPRLPRPRPRPCRWPRP | 0.252 |
| RRIRLRPPRLPRPRPRPCVKPRP | 0.00159 |
| RRIRLRPPRLPRPRPRPCVWPRP | -0.0182 |
| RRIRLRPPRLPRPRPRPCYLPRP | -0.856 |
| RRIRLRPPRLPRPRPRPDAMPRP | 0.224 |
| RRIRLRPPRLPRPRPRPDCEPRP | 0.0566 |
| RRIRLRPPRLPRPRPRPDCFPRP | 0.19 |
| RRIRLRPPRLPRPRPRPDDVPRP | -0.00776 |
| RRIRLRPPRLPRPRPRPDEFPRP | 0.0159 |
| RRIRLRPPRLPRPRPRPDETPRP | -0.0184 |
| RRIRLRPPRLPRPRPRPDFAPRP | 0.0202 |
| RRIRLRPPRLPRPRPRPDFCPRP | -0.0853 |
| RRIRLRPPRLPRPRPRPDHIPRP | -0.221 |
| RRIRLRPPRLPRPRPRPDHMPRP | -0.0422 |
| RRIRLRPPRLPRPRPRPDHVPRP | -0.00963 |
| RRIRLRPPRLPRPRPRPDICPRP | -0.102 |
| RRIRLRPPRLPRPRPRPDIDPRP | 0.0249 |
| RRIRLRPPRLPRPRPRPDIHPRP | 0.126 |
| RRIRLRPPRLPRPRPRPDKVPRP | -0.0274 |

| Sequence | shrunken log2 fold change |
| --- | --- |
| RRIRLRPPRLPRPRPRPDLNPRP | -1.09 |
| RRIRLRPPRLPRPRPRPDLQPRP | -0.0184 |
| RRIRLRPPRLPRPRPRPDMHPRP | 3.46 |
| RRIRLRPPRLPRPRPRPDNEPRP | -0.162 |
| RRIRLRPPRLPRPRPRPDNVPRP | 0.0219 |
| RRIRLRPPRLPRPRPRPDPCPRP | -0.0403 |
| RRIRLRPPRLPRPRPRPDQQPRP | -0.174 |
| RRIRLRPPRLPRPRPRPDRIPRP | -0.123 |
| RRIRLRPPRLPRPRPRPDRQPRP | 0.00462 |
| RRIRLRPPRLPRPRPRPDSDPRP | -0.0524 |
| RRIRLRPPRLPRPRPRPDSIPRP | -0.0883 |
| RRIRLRPPRLPRPRPRPDTPPRP | 0.0881 |
| RRIRLRPPRLPRPRPRPDVAPRP | 0.093 |
| RRIRLRPPRLPRPRPRPDWAPRP | 0.0283 |
| RRIRLRPPRLPRPRPRPDWFPRP | -0.173 |
| RRIRLRPPRLPRPRPRPDWWPRP | 0.0919 |
| RRIRLRPPRLPRPRPRPEAIPRP | 0.0246 |
| RRIRLRPPRLPRPRPRPEALPRP | -0.00171 |
| RRIRLRPPRLPRPRPRPEARPRP | 0.142 |
| RRIRLRPPRLPRPRPRPEDLPRP | 0.14 |
| RRIRLRPPRLPRPRPRPEDYPRP | -0.0202 |
| RRIRLRPPRLPRPRPRPEFAPRP | 0.342 |
| RRIRLRPPRLPRPRPRPEFDPRP | 0.31 |
| RRIRLRPPRLPRPRPRPEGAPRP | 0.552 |
| RRIRLRPPRLPRPRPRPEGIPRP | -0.229 |

| Sequence | shrunken log2 fold change |
| --- | --- |
| RRIRLRPPRLPRPRPRPEGMPRP | 0.194 |
| RRIRLRPPRLPRPRPRPEHCPRP | 0.0119 |
| RRIRLRPPRLPRPRPRPEHHPRP | -0.156 |
| RRIRLRPPRLPRPRPRPEHPPRP | -0.00635 |
| RRIRLRPPRLPRPRPRPEHSPRP | -0.0185 |
| RRIRLRPPRLPRPRPRPEICPRP | -0.0881 |
| RRIRLRPPRLPRPRPRPEKGPRP | 0.693 |
| RRIRLRPPRLPRPRPRPELPPRP | -0.0217 |
| RRIRLRPPRLPRPRPRPEMTPRP | 0.276 |
| RRIRLRPPRLPRPRPRPEMYPRP | -0.00133 |
| RRIRLRPPRLPRPRPRPEPHPRP | 0.324 |
| RRIRLRPPRLPRPRPRPEPTPRP | -0.00556 |
| RRIRLRPPRLPRPRPRPEQFPRP | -0.141 |
| RRIRLRPPRLPRPRPRPEQIPRP | -0.0478 |
| RRIRLRPPRLPRPRPRPEQNPRP | 0.41 |
| RRIRLRPPRLPRPRPRPEREPRP | 0.0872 |
| RRIRLRPPRLPRPRPRPESAPRP | 0.228 |
| RRIRLRPPRLPRPRPRPESGPRP | 0.0315 |
| RRIRLRPPRLPRPRPRPESWPRP | 0.162 |
| RRIRLRPPRLPRPRPRPETCPRP | -0.0935 |
| RRIRLRPPRLPRPRPRPETHPRP | 0.161 |
| RRIRLRPPRLPRPRPRPETNPRP | 0.467 |
| RRIRLRPPRLPRPRPRPEVHPRP | 0.101 |
| RRIRLRPPRLPRPRPRPEWFPRP | 0.161 |
| RRIRLRPPRLPRPRPRPEWNPRP | -0.083 |

| Sequence | shrunken log2 fold change |
| --- | --- |
| RRIRLRPPRLPRPRPRPEYLPRP | -0.0639 |
| RRIRLRPPRLPRPRPRPFCWPRP | 0.231 |
| RRIRLRPPRLPRPRPRPFECPRP | -0.345 |
| RRIRLRPPRLPRPRPRPFFCPRP | -0.0304 |
| RRIRLRPPRLPRPRPRPFGGPRP | -0.334 |
| RRIRLRPPRLPRPRPRPFICPRP | -0.426 |
| RRIRLRPPRLPRPRPRPFKKPRP | 0.0344 |
| RRIRLRPPRLPRPRPRPFKRPRP | -0.09 |
| RRIRLRPPRLPRPRPRPFKTPRP | -0.501 |
| RRIRLRPPRLPRPRPRPFLQPRP | -0.102 |
| RRIRLRPPRLPRPRPRPFLTPRP | -0.434 |
| RRIRLRPPRLPRPRPRPFMNPRP | -0.217 |
| RRIRLRPPRLPRPRPRPFNMPRP | -0.189 |
| RRIRLRPPRLPRPRPRPFPAPRP | -0.094 |
| RRIRLRPPRLPRPRPRPFPFPRP | -0.254 |
| RRIRLRPPRLPRPRPRPFPHPRP | -0.0537 |
| RRIRLRPPRLPRPRPRPFREPRP | -0.0266 |
| RRIRLRPPRLPRPRPRPFSNPRP | -1.04 |
| RRIRLRPPRLPRPRPRPFTDPRP | -0.317 |
| RRIRLRPPRLPRPRPRPFVKPRP | -0.225 |
| RRIRLRPPRLPRPRPRPFVNPRP | -0.372 |
| RRIRLRPPRLPRPRPRPFWPPRP | 0.184 |
| RRIRLRPPRLPRPRPRPFYGPRP | -0.157 |
| RRIRLRPPRLPRPRPRPFYMPRP | -0.0545 |
| RRIRLRPPRLPRPRPRPGAKPRP | -0.548 |

| Sequence | shrunken log2 fold change |
| --- | --- |
| RRIRLRPPRLPRPRPRPGAMPRP | 0.34 |
| RRIRLRPPRLPRPRPRPGASPRP | 0.642 |
| RRIRLRPPRLPRPRPRPGCMPRP | 0.646 |
| RRIRLRPPRLPRPRPRPGCRPRP | 0.157 |
| RRIRLRPPRLPRPRPRPGDFPRP | 0.017 |
| RRIRLRPPRLPRPRPRPGDLPRP | 0.00844 |
| RRIRLRPPRLPRPRPRPGDMPRP | -0.129 |
| RRIRLRPPRLPRPRPRPGGGPRP | 0.849 |
| RRIRLRPPRLPRPRPRPGGHPRP | 0.0643 |
| RRIRLRPPRLPRPRPRPGGVPRP | 0.0323 |
| RRIRLRPPRLPRPRPRPGHKPRP | -0.275 |
| RRIRLRPPRLPRPRPRPGHYPRP | -0.0695 |
| RRIRLRPPRLPRPRPRPGIAPRP | -0.206 |
| RRIRLRPPRLPRPRPRPGINPRP | -0.354 |
| RRIRLRPPRLPRPRPRPGIWPRP | 0.355 |
| RRIRLRPPRLPRPRPRPGIYPRP | -0.318 |
| RRIRLRPPRLPRPRPRPGLFPRP | 0.157 |
| RRIRLRPPRLPRPRPRPGLGPRP | 0.342 |
| RRIRLRPPRLPRPRPRPGLNPRP | 0.15 |
| RRIRLRPPRLPRPRPRPGMFPRP | -0.322 |
| RRIRLRPPRLPRPRPRPGNYPRP | 0.0343 |
| RRIRLRPPRLPRPRPRPGPMPRP | 0.255 |
| RRIRLRPPRLPRPRPRPGQQPRP | -0.0555 |
| RRIRLRPPRLPRPRPRPGRGPRP | 0.696 |
| RRIRLRPPRLPRPRPRPGVFPRP | -0.0879 |
